For this test, the target named is human serum albumin (HSA) (human) (UniProt P02768). Kind of test: HSA binding class, Table 23.

“ABD L64G/I65A/V71A (from UniProt P19909 254-299)” gave an HSA binding of under 0.1.

Source of the values: patent publication US20200095333A1.
